Laboratory results reported in article PMC3621905.

Experiments:
[1] = molecular target: Mouse TASK-3 (mKCNK9), untagged (mouse) (UniProt Q3LS21)
[2] = molecular target: HA-mKCNK9 (mouse TASK-3, HA-tagged) (mouse) (UniProt Q3LS21); experiment: co-IP; DPP6 and TASK-3 co-expressed with one of them HA-tagged; membrane fraction solubilised in TNE buffer (50 mM TRIS, 150 mM NaCl, 1 mM EDTA, pH 7.4, 1% Triton X-100), precleared with mouse IgG agarose, incubated 16 h at 4°C with anti-HA agarose (clone HA-7); Western blot with anti-DPP6 or anti-KCNK9; Co-IP ratio = fraction precipitated indirectly when untagged divided by fraction precipitated directly when tagged
[3] = molecular target: HA-DPP6K (mouse dipeptidyl peptidase-like protein 6, N-terminal variant K, HA-tagged) (mouse); experiment: as above

Substance	resting membrane conductance of CHO-K1 cells co-expressing DPP6 with TASK-3, against TASK-3 alone (voltage clamp) [1] [fold]	Co-IP ratio (percent of the protein that could be directly precipitated) [2] [%]	Co-IP ratio (percent of the protein that could be directly precipitated) [3] [%]
DPP6K (mouse dipeptidyl peptidase-like protein 6, N-terminal variant K), untagged (natural protein)	2.3	31.4	–
Mouse TASK-3 (mKCNK9), untagged (from UniProt Q3LS21 1-402) (natural protein)	–	–	31.4
